These results are taken from publication PMC6328254, “Sequential Regulation of Maternal mRNAs through a Conserved cis-Acting Element in Their 3′ UTRs”.

Sequence of Bruno (O02374 entry or part of it): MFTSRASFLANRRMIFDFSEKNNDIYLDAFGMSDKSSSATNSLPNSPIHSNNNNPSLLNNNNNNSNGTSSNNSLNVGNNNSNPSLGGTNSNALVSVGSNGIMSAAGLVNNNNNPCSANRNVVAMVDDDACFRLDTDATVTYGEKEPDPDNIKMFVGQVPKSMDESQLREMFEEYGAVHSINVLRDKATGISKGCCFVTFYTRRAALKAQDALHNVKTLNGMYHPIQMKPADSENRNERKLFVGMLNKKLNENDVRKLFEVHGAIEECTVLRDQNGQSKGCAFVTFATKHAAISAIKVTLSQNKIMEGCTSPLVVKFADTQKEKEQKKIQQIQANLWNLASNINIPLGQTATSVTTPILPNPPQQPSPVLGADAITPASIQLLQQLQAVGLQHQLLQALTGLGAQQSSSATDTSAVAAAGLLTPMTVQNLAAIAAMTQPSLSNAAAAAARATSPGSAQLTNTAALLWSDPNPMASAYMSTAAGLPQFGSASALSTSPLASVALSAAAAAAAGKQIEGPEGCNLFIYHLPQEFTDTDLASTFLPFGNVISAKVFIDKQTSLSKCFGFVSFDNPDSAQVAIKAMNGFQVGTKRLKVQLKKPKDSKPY

The first data set concerns the target Bruno (UniProt O02374 1-604). The experiment in a line: EMSA; 50 mM Tris pH 7.5, 150 mM NaCl, 2 mM DTT, 0.1 mg/ul BSA (so in the source), 0.001% Igepal CA-630, dIdC and yeast tRNA; 20 min at RT; 6% native PAGE at 4 C. Conditions: protein: recombinant; tags: His (pETM-82; purified on His GraviTrap); label: 5'-32P. A general note: In EMSA bound probe runs differently from free probe, usually more slowly.
In the case of UUUGUAAAUU (ssRNA) [pgc 3'UTR PRE/BRE], the binding result was “binds”.

On to UUUCUCAAUU (ssRNA) [pgc 3'UTR PRE mutant UCUC], for which the binding result is “no binding”.

In the case of UUUUUUAAUU (ssRNA) [pgc 3'UTR PRE mutant UUUU], the binding result was “no binding”.

For CUUGAAUGUAUGUUAAUUGUAUGUAUUGAU (ssRNA) [osk 3'UTR BRE], the binding result is listed as “binds”.

The target of the next data set is T1, Pumilio RNA-binding domain (UniProt P25822 1091-1426).
T1 sequence: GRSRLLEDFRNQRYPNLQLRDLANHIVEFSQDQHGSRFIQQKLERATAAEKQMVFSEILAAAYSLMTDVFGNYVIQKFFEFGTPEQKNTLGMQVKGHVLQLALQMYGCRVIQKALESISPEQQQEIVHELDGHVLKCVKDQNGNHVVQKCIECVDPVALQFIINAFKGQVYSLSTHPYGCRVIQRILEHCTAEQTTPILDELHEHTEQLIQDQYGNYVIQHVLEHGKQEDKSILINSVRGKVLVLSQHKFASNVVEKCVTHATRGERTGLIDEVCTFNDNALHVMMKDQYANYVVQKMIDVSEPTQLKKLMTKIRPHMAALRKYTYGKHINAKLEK
Described as above. The settings on record: protein: recombinant; tags: HaloTag (pFN18K) removed by AcTEV cleavage; label: 5'-32P.
Consider UUUGUAAAUU (ssRNA) [pgc 3'UTR PRE/BRE], for which the binding result is listed as “binds”.

Consider UUUCUCAAUU (ssRNA) [pgc 3'UTR PRE mutant UCUC], for which the binding result is “no binding”.

On to UUUUUUAAUU (ssRNA) [pgc 3'UTR PRE mutant UUUU], for which the binding result was “no binding”.

Turning to UAGACUAUUUGUAAUUUAUAUC (ssRNA) [CycB 3'UTR NRE], the binding result is “binds”.
